To fix the notation:
B1: Example 83: (Ahx)**-GIC+SRSLP-(Oic)-I-(Pen)+-IPE++-NH2 (peptide)
peptide: [Ahx]GICSRSLP[Oic]I[Pen]IPE-NH2
modifications: disulfide 4-12; lactam N-15; also: TFA salt
B2: Example 87: (Dap)**-IC+SRSLP-(Oic)-I-(Pen)+-IP** (peptide)
peptide: cyclo([Dap]ICSRSLP[Oic]I[Pen]IP)
modifications: disulfide 3-11; also: TFA salt
B3: Example 85: (Dap)++-IC+SRSLP-(Oic)-I-(Pen)+-IP** (peptide)
peptide: [Dap]ICSRSLP[Oic]I[Pen]IP
modifications: lactam 1-C; disulfide 3-11; also: TFA salt
B4: Example 20: (Dap)++-GGIC+SRSLPPIC+IPD** (peptide)
peptide: [Dap]GGICSRSLPPICIPD
modifications: lactam 1-C; disulfide 5-13; also: TFA salt
B5: Example 67: K++-IC+SRS-((tBu)A)-PPI-(Pen)+-I** (peptide)
peptide: KICSRS[tBuAla]PPI[Pen]I
modifications: lactam 1-C; disulfide 3-11; also: TFA salt
B6: Example 82: (Ahx)**-GAIC+SRSLP-(Oic)-I-(Pen)+-IPE++-NH2 (peptide)
peptide: [Ahx]GAICSRSLP[Oic]I[Pen]IPE-NH2
modifications: disulfide 5-13; lactam N-16; also: TFA salt
B7: Example 84: (Ahx)**-GaIC+SRSLP-(Oic)-I-(Pen)+-IPE++-NH2 (peptide)
peptide: [Ahx]G[dA]ICSRSLP[Oic]I[Pen]IPE-NH2
modifications: disulfide 5-13; lactam N-16; also: TFA salt
B8: Example 80: k++-IC+SRS-((tBu)A)-PPI-(Pen)+-I** (peptide)
peptide: [dK]ICSRS[tBuAla]PPI[Pen]I
modifications: lactam 1-C; disulfide 3-11; also: TFA salt
B9: Example 91: E++GIC+SRSLP-(Oic)-I-(Pen)+-IPDK++-NH2 (peptide)
peptide: EGICSRSLP[Oic]I[Pen]IPDK-NH2
modifications: lactam 1-16; disulfide 4-12; also: TFA salt
B10: Example 18: A**GGIC+SRSLPPIC+IPD** (peptide)
peptide: cyclo(AGGICSRSLPPICIPD)
modifications: disulfide 5-13; also: TFA salt
B11: Example 66: (Orn)++-IC+SRS-((tBu)A)-PPI-(Pen)+-I** (peptide)
peptide: [Orn]ICSRS[tBuAla]PPI[Pen]I
modifications: lactam 1-C; disulfide 3-11; also: TFA salt
B12: Example 94: (Ahx)**-GIC+SRSLPPIC+IPD** (HCl Salt) (peptide)
peptide: cyclo([Ahx]GICSRSLPPICIPD)
modifications: disulfide 4-12; also: HCl salt
B13: Example 61: (Orn)++-AIC+SRS-((tBu)A)-PPI-(Pen)+-IPD++-NH2 (peptide)
peptide: [Orn]AICSRS[tBuAla]PPI[Pen]IPD-NH2
modifications: lactam 1-15; disulfide 4-12; also: TFA salt
B14: Example 74: (Ahx)**-AIC+SRSLP-(Oic)-I-(Pen)+-IPE++-NH2 (peptide)
peptide: [Ahx]AICSRSLP[Oic]I[Pen]IPE-NH2
modifications: disulfide 4-12; lactam N-15; also: TFA salt
B15: Example 62: G**-(TXA)-GIC+SRS-((tBu)A)-PPI-(Pen)+-IPD++-NH2 (peptide)
peptide: G[Trx]GICSRS[tBuAla]PPI[Pen]IPD-NH2
modifications: disulfide 5-13; lactam N-16; also: TFA salt
B16: Example 71: (Orn)++-IC+SRS-((tBu)A)-PPI-(Pen)+-IP** (peptide)
peptide: [Orn]ICSRS[tBuAla]PPI[Pen]IP
modifications: lactam 1-C; disulfide 3-11; also: TFA salt
B17: Example 17: A**GGIC+SRSLPPIC+IPd** (peptide)
peptide: cyclo(AGGICSRSLPPICIP[dD])
modifications: disulfide 5-13; also: TFA salt
B18: Example 90: E++GIC+SRSLP-(Oic)-I-(Pen)+-IPK++-NH2 (peptide)
peptide: EGICSRSLP[Oic]I[Pen]IPK-NH2
modifications: lactam 1-15; disulfide 4-12; also: TFA salt
B19: Example 63: (TTDS)**-AIC+SRS-((tBu)A)-PPI-(Pen)+-IPD** (peptide)
peptide: cyclo([TTDS]AICSRS[tBuAla]PPI[Pen]IPD)
modifications: disulfide 4-12; also: TFA salt
B20: Example 88: I**C+SRS-((tBu)A)-PPI-(Pen)+-IP** (HCl Salt) (peptide)
peptide: cyclo(ICSRS[tBuAla]PPI[Pen]IP)
modifications: disulfide 2-10; also: HCl salt
B21: Example 95: (Ahx)**-IC+SRSLP-(Oic)-IC+I** (peptide)
peptide: cyclo([Ahx]ICSRSLP[Oic]ICI)
modifications: disulfide 3-11; also: TFA salt
B22: Example 81: (3-Azido-L-Alanine)++-GAIC+SRS-((tBu)A)-PPIC+IP-(L-Propargylglycine)++-NH2 (1,2,3-triazole-1,4-diyl) (peptide)
peptide: [3‑azido‑L‑alanine]GAICSRS[tBuAla]PPICIP[L‑propargylglycine]-NH2
modifications: triazole 1-16; disulfide 5-13; also: TFA salt
B23: Example 77: (Ahx)**-((N-Me)G)-AIC+SRSLP-(Oic)-I-(Pen)+-IPE++-NH2 (peptide)
peptide: [Ahx][Sar]AICSRSLP[Oic]I[Pen]IPE-NH2
modifications: disulfide 5-13; lactam N-16; also: TFA salt
B24: Example 14: (PEG3(16 atoms))**-GIC+SRSLPPIC+IPD** (peptide)
peptide: cyclo([PEG4]GICSRSLPPICIPD)
modifications: disulfide 4-12; also: TFA salt
B25: Example 65: (Orn)**-GIC+SRS-((tBu)A)-PPI-(Pen)+-I** (peptide)
peptide: cyclo([Orn]GICSRS[tBuAla]PPI[Pen]I)
modifications: disulfide 4-12; also: TFA salt
B26: Example 79: (Ahx)**-aIC+SRSLP-(Oic)-I-(Pen)+-IPE++-NH2 (HCl Salt) (peptide)
peptide: [Ahx][dA]ICSRSLP[Oic]I[Pen]IPE-NH2
modifications: disulfide 4-12; lactam N-15; also: HCl salt
B27: Example 19: a**GGIC+SRSLPPIC+IPD** (peptide)
peptide: cyclo([dA]GGICSRSLPPICIPD)
modifications: disulfide 5-13; also: TFA salt
B28: Example 15: G**GIC+SRSLPPIC+IPD** (peptide)
peptide: cyclo(GGICSRSLPPICIPD)
modifications: disulfide 4-12; also: TFA salt
B29: Example 73: (Dap)**-(Dab)-IC+SRS-((tBu)A)-PPI-(Pen)+-I** (peptide)
peptide: cyclo([Dap][Dab]ICSRS[tBuAla]PPI[Pen]I)
modifications: disulfide 4-12; also: TFA salt
B30: Example 86: (Dap)++-(Dap)-IC+SRSLP-(Oic)-I-(Pen)+-IP** (peptide)
peptide: [Dap][Dap]ICSRSLP[Oic]I[Pen]IP
modifications: lactam 1-C; disulfide 4-12; also: TFA salt
B31: Example 16: (Ahx)**-GIC+SRSLPPIC+IPd** (peptide)
peptide: cyclo([Ahx]GICSRSLPPICIP[dD])
modifications: disulfide 4-12; also: TFA salt
B32: Example 78: k++-IC+SRS-((tBu)A)-PPI-(Pen)+-I** (HCl Salt) (peptide)
peptide: [dK]ICSRS[tBuAla]PPI[Pen]I
modifications: lactam 1-C; disulfide 3-11; also: HCl salt
B33: Example 97: (Dap)**-(Dap)-IC+SRS-((tBu)A)-PPI-(Pen)+-IP** (peptide)
peptide: cyclo([Dap][Dap]ICSRS[tBuAla]PPI[Pen]IP)
modifications: disulfide 4-12; also: TFA salt
B34: Example 96: (Orn)**-GIC+SRS-((tBu)A)-PPI-(Pen)+-IP** (peptide)
peptide: cyclo([Orn]GICSRS[tBuAla]PPI[Pen]IP)
modifications: disulfide 4-12; also: TFA salt

We go through 34 molecules from patent publication US20240010684A1 (Bayer, published 2024).

*1 amine or outer side, *2 acyl side, *3 side chain or, on linkers, in order; H or OH if unused. Bridges are numbered along the chain shown (N, C = ends). Where no end group is shown, it is not given here. [ ]: non-standard residue; d: D form. TTDS = 1,13-diamino-4,7,10-trioxatridecan-succinamic acid, O=C(CCC(=O)[*:2])NCCCOCCOCCOCCCN[*:1]; Oic = O=C(O)[C@@H]1C[C@@H]2CCCC[C@@H]2N1; Trx = NC[C@H]1CC[C@H](C(=O)O)CC1; tBuAla = CC(C)(C)C[C@H](N)C(=O)O; PEG4 = NCCOCCOCCOCCOCCC(=O)O; Pen = CC(C)(S)[C@H](N)C(=O)O; Orn = NCCC[C@H](N)C(=O)O; Dab = NCC[C@H](N)C(=O)O; Dap = NC[C@H](N)C(=O)O; Ahx = NCCCCCC(=O)O; Sar = CNCC(=O)O

The target of one assay is recombinant human MASP2 (amino acids 297-686, C-terminal His Tag) (human, UniProt O00187 297-686). Kind of assay: cell-based or functional assay.
Chain of recombinant human MASP2 (amino acids 297-686, C-terminal His Tag) (O00187 other isoform, or with tags, fused parts or gaps limits assumed): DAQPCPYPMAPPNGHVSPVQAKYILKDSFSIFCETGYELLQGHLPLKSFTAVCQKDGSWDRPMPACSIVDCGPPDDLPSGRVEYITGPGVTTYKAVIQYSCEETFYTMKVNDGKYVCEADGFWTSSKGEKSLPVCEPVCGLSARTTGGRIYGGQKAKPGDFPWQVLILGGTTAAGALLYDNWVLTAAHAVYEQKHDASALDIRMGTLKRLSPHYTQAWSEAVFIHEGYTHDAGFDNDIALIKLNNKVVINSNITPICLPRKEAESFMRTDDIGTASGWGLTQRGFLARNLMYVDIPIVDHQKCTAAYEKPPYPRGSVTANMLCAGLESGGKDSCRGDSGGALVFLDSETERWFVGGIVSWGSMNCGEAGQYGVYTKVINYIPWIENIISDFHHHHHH
Consider B1, for which the “human MASP2 IC50” value came out at 91 nM.
Regarding B2, the “human MASP2 IC50” value stood at 700 nM.
Still for that read-out and setting: in the case of B3 it was 1000 nM; in that of B4, 110 nM.
With B5, the “human MASP2 IC50” value turned out to be 150 nM.
As to B6, the “human MASP2 IC50” value was found to be 700 nM.
On the same count and under the same terms, as for B7, the figure is 87 nM; as for B8, 6.8 nM.
Regarding B9, the “human MASP2 IC50” value is 71 nM.
On the same count and under the same terms, in the case of B10 it was 15 nM; in that of B11, 22 nM; in that of B12, 130 nM.
On the same count and under the same terms, in the case of B13 it was 310 nM; in that of B14, 160 nM.
Regarding B15, the “human MASP2 IC50” value was 540 nM.
The same measure, in the same setting: as for B16, the figure is 24 nM; as for B17, 88 nM; as for B18, 110 nM.
On the same count and under the same terms, as for B19, the figure is 170 nM; as for B20, 1000 nM; as for B21, 110 nM.
For the molecule B22, the “human MASP2 IC50” value came to 230 nM.
On the same count and under the same terms, as for B23, the figure is 210 nM; as for B24, 240 nM; as for B25, 540 nM.
Still for that read-out and setting: as for B26, the figure is 45 nM; as for B27, 210 nM; as for B28, 300 nM.
Still for that read-out and setting: in the case of B29 it was 430 nM; in that of B30, 1000 nM; in that of B31, 370 nM.
As for B32, the “human MASP2 IC50” value came out at 7 nM.
Same read-out and setting: as for B33, the figure is 760 nM; as for B34, 400 nM.

Another assay addresses T1, recombinant human MASP1 (amino acids 297-699, C-terminal His Tag) (human, UniProt P48740 297-699).
T1 sequence: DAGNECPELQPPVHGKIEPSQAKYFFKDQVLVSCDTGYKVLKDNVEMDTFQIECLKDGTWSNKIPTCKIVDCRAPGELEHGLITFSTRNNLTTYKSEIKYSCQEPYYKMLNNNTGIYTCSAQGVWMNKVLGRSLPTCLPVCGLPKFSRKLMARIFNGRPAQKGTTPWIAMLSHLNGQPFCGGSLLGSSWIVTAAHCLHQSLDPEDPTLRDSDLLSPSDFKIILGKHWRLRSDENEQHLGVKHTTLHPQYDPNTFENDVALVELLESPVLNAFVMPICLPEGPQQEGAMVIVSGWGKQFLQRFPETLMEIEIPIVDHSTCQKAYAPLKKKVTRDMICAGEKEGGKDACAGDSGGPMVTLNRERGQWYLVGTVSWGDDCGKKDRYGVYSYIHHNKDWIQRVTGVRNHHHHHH
The assay is described as follows: cell-based or functional assay.
Regarding B1, the “human MASP1 IC50” value came out at 18 nM.
As for B2, the “human MASP1 IC50” value came to 46 nM.
Still for that read-out and setting: as for B3, the figure is 1000 nM; as for B4, 55 nM.
Still for that read-out and setting: as for B5, the figure is 3.25 nM; as for B6, 69 nM.
Consider B7, for which the “human MASP1 IC50” value came to 15 nM.
Still for that read-out and setting: in the case of B8 it was 11 nM.
Same read-out and setting: as for B9, the figure is 29 nM; as for B10, 50 nM.
The same measure, in the same setting: in the case of B11 it was 8.1 nM; in that of B12, 120 nM; in that of B13, 3.1 nM.
Take B14: the “human MASP1 IC50” value was found to be 14 nM.
On to B15, for which the “human MASP1 IC50” value worked out at 22 nM.
The same measure, in the same setting: as for B16, the figure is 21 nM.
Same read-out and setting: in the case of B17 it was 26 nM; in that of B18, 9.8 nM; in that of B19, 28 nM.
Turning to B20, the “human MASP1 IC50” value stood at 1000 nM.
Still for that read-out and setting: in the case of B21 it was 100 nM; in that of B22, 18 nM.
Turning to B23, the “human MASP1 IC50” value was determined as 11 nM.
Same read-out and setting: in the case of B24 it was 170 nM.
On to B25, for which the “human MASP1 IC50” value worked out at 49 nM.
The same measure, in the same setting: as for B26, the figure is 22 nM.
Same read-out and setting: as for B27, the figure is 49 nM; as for B28, 120 nM.
Same read-out and setting: in the case of B29 it was 42 nM; in that of B30, 27 nM; in that of B31, 150 nM.
B32: the “human MASP1 IC50” value is 10 nM.
As for B33, the “human MASP1 IC50” value was 5 nM.
Take B34: the “human MASP1 IC50” value turned out to be 23 nM.
